The target in this assay is PhTX-II PLA2 (Porthidium hyoprora).

In the case of “crotapotin F2 from Crotalus durissus collilineatus (natural protein)”, the inhibition of the PLA2 enzymatic activity of PhTX-II (substrate 4-nitro-3-(octanoyloxy) benzoic acid) after incubating the two proteins 1:1 w/w for 30 min at 37 °C came to 60%.

Take “crotapotin F3 from Crotalus durissus collilineatus (natural protein)”: the inhibition of the PLA2 enzymatic activity of PhTX-II (substrate 4-nitro-3-(octanoyloxy) benzoic acid) after incubating the two proteins 1:1 w/w for 30 min at 37 °C is 60%.

For the origin of these results see paper PMC4247251.
